Experiments:
CD13+ pericytes = assay: Cy3-Aβ42 uptake by pericytes on freshly isolated mouse brain cortical slices; type: cell-based; conditions: Cy3-Aβ42 1 μM
Procedure: Brain slices were prepared from 2-month old C57BL6 mice or Lrp^lox/lox;Cspg4-Cre mice. Following the urethane anesthesia, brains were quickly removed from the cranial cavity and sectioned with McIlwain tissue chopper (Ted Pella, Inc., Redding, CA, USA) into 200 μm thick slices containing cortex and hippocampus, as previously described. Slices were recovered for 30 min in a submersion chamber filled with the per-warmed (at 37 °C) artificial cerebrospinal fluid (aCSF; 126 mM NaCl, 2.5 mM KCl, 1.25 mM Na2PO4, 26 mM NaHCO3, 1 mM MgCl2, 2 mM CaCl2, 0.5 mM ascorbic acid, 2 mM sodium pyrurate, and 10 mM glucose, saturated with 95% O2 and 5% CO2). […] (anti-LRP1 N20, 50 μg/ml; Santa Cruz Biotech., Santa Cruz, CA, USA) for 20 min at 37 °C. At the end of the experiment, brain slices were washed with phosphate buffer saline (PBS) and fixed with 4% PFA for 30 min. The same immunostaining procedure as for human brain tissue without antigen retrieval was performed on mouse brain slices. Primary antibodies included goat anti-mouse aminopeptidase N (CD13) (1:100, R&D Systems), and goat anti-mouse PDGFRβ (1:100, R&D Systems). Secondary antibodies were: Alexa 488-conjugated donkey anti-goat (1:200, Invitrogen). Images were obtained with Zeiss 510 confocal microscopy (Carl Zeiss MicroImaging Inc.) with lasers and band-pass filter settings as described above. […]

[1] = test system: primary mouse brain pericytes; assay: Clearance of aggregated Cy3-Aβ42 from multi-spot glass slides by primary mouse brain pericytes; type: cell-based; conditions: 5 days of culture, 1 μg Cy3-Aβ42 per spot, 5,000 cells per spot; anti-LRP1 50 μg/ml, RAP 500 nM, or si.Lrp1; compared to cell-free control; N = 4 independent cultures, mean
Description: Brain capillaries were isolated from mouse cortices pooled from 3 to 4 mouse brains for each biological replicate. In experiments in Figs. 4 and 5, we used 3–4 independent biological replicates (cultures), as indicated in the legends to these respective figures. Capillaries were isolated as we have described previously. In brief, mouse cortices were macroscopically dissected, and all visible white matter was discarded in ice-cold PBS containing 2% fetal bovine serum (FBS). The brain was homogenized in PBS containing 2% FBS and centrifuged at 6,000 g for 15 min after addition of Dextran (70 kDa, Sigma). The capillary pellet was collected and sequentially filtered through a 45 μm cell strainer (BD Falcon). […]
The multi-spot glass slides (Thermo Scientific, 9991090, Waltham, MA, USA) were coated with Cy3- Aβ42 [29, 51] at 1 μg per spot without cells or with brain capillary pericytes treated with non-immune IgG (NI-IgG) or LRP1-specific blocking antibody (anti-LRP1; 50 μg/ml) or) or apoE-specific blocking antibody (anti-apoE, HJ6.3, 50 μg/ml), scrambled siRNA (si.Control) or LRP1 siRNA (si.Lrp1) (Dharmacon, E-040764-00-0010) or apoE siRNA (si.Apoe) (Dharmacon, E-040885-00-0005), and 500 nM receptor-associated protein (RAP) (EMD Bioscience), lipidated apoE3 (40 nM) or apoE4 (40 nM). […] The Cy3-Aβ42 relative intensity was analyzed with the NIH Image J software. […]

## Cy3-Aβ42: Human Cy3-labelled amyloid-β42; preparation contained monomers, dimers, trimers, tetramers and small molecular weight oligomers [reference compound]
CD13+ pericytes; 30 min vs 2 h
  Uptake of Cy3-Aβ42 by pericytes, time course: rapid and time-dependent

B1: RAP: Receptor associated protein, an LRP1 antagonist which inhibits ligand binding to LRP1 (protein, UniProt P30533 35-357, looked up)
Alpha-2-macroglobulin …: YSREKNQPKPSPKRESGEEFRMEKLNQLWEKAQRLHLPPVRLAELHADLKIQERDELAWKKLKLDGLDEDGEKEARLIRNLNVILAKYGLDGKKDARQVTSNSLSGTQEDGLDDPRLEKLWHKAKTSGKFSGEELDKLWREFLHHKEKVHEYNVLLETLSRTEEIHENVISPSDLSDIKGSVLHSRHTELKEKLRSINQGLDRLRRVSHQGYSTEAEFEEPRVIDLWDLAQSANLTDKELEAFREELKHFEAKIEKHNHYQKQLEIAHEKLRHAESVGDGERVSRSREKHALLEGRTKELGYTVKKHLQDLSGRISRARHNEL
CD13+ pericytes; 2 h, in the presence of the LRP1 inhibitor (anti-LRP1 50 μg/ml), confocal microscopy, N = 4 independent cultures, mean
  Cy3-Aβ42+ area occupying CD13+ pericyte profiles: 21.7%
[1]
  Cy3-Aβ42 cleared by pericytes: 27.3%

Source: article PMC6194676, “Blood-brain barrier-associated pericytes internalize and clear aggregated amyloid-β42 by LRP1-dependent apolipoprotein E isoform-specific mechanism” (Molecular Neurodegeneration, 2018)
